Format in all cases: biochemical
Data set [1] can be described thus: Enantioselectivity, GC analysis of hydrolysis of acetic acid esters. How it is done:
To assay the activity of the enzymes on a range of acetic acid esters gas chromatography was used. The samples were analyzed for the production of chiral alcohols by the gas chromatograph GC-17A (Shimadzu, Duisburg, Germany) equipped with FID detector and CP-Chirasil-DEX CB (Chrompack (Middelburg, Netherlands), 25 m×0.25 mm ID) at a helium flow of 1.3 ml/min. The temperature programme included: 5 min at 60° C., followed by an increase of 5° C. per min until 190° C. was reached. For the GC analysis, activity-tests were run in 1 M Tris buffered solutions and using 10 mM substrates dissolved in DMSO as 0.1 M stock solutions. 2 μg of the enzyme were added and tests incubated over night before the corresponding alcohols could be extracted by treatment with acetic acid ethyl ester and analyzed by GC.

The nature of data set [2]: Titration assay with vinyl acid esters. Particulars: 10 mM, 37° C., pH 7.0. The method, then: (§1) Enzyme activities on the substrates triacetin, tripropionin, tributyrin, tricaprylene, trilaurin and vinyl-substrates (vinyl-acetate, ˜propionate, ˜butyrate, ˜caproate, ˜caprylate and ˜laurate) were determined using a standard titration assay with minor modifications. Tests were performed with a Methrom 718 STAT potentiometric titrator (Herisau, Switzerland) and by using 10 mM NaOH for titration. The substrates at 10 mM concentration were emulsified in 20 ml reaction buffer containing 2 mM Tris/HCl pH 7.0. After addition of 7.5 μg of the purified enzyme the NaOH consumption was recorded at a reaction temperature of 37° C. One unit was defined as the amount of enzyme that released […] of fatty acid per min.

Data set [3] in a line: Titration assay with triglycerides. Particulars: 10 mM, 37° C., pH 7.0. The method, then: as §1
Data set [4] is described as follows: Enzyme activity with pNP-acylesters of different chain length. Conditions: substrate pNP-caproate (C6); 4 mM, 45° C., pH 7.2. The method, then: Enzyme activity tests were performed by incubating the enzyme with 4 mM substrate at 45° C. in 100 mM Tris-HCl buffer at pH 7.2, unless otherwise indicated. The reaction was measured at 410 nm. One unit is defined as the amount of enzyme catalyzing the appearance of 1 μmol of free p-nitrophenol/min. Enzyme activity against pNP-acylesters (butyrate, valerate, caproate, octanoate, decanoate and palmitate) was tested under the above conditions. […] The enzyme according to SEQ ID NO: 6 converted pNP-caproate with a specific activity of 80.0 U/mg.

Where [5] appears, read: substrate Acetic acid ester of tetrahydronaphthylamin.
Where [6] appears, read: substrate acetic acid ester of (+/−)-1-octin-3-ol, 10 mM, over night.
Where [7] appears, read: substrate acetic acid ester of phenylethylamin.
Where [8] appears, read: substrate cis-3,5-diacetoxy-1-cyclopenten.
Setting [9] is: substrate cis-3,5-diacetoxy-1-cyclopenten, conversion for the preferred enantiomer.
Where [10] appears, read: substrate isopropylidenglycerolacetate (rac.), values marked ^1: substrate conversion after 12 h.

B1: EstCL1: recombinant enzyme having carboxyl esterase activity, amino acid sequence SEQ ID NO: 6, family IV of bacterial lipolytic enzymes (protein)
chain: MTDPYVRPDVAMFLAFLNNAPGPKLHELSAPEARMVQNAMRDMADAPVGELAVMRDLEIPGPAGTIMARLYDKQPGRGSGPAMVFFHGGGFVIGNIHTYEPFCAEVARLLDLPVISVEYRLGPESPFPAAFEDCEAAARWVASKPEALGFDVSGLILSGDSAGGNLTISTSMALRDVAAGVPVIAQMPIYPVVTLDPDWPSMRDFADGYLLTAELIQWFGDGHGASGEDYRTHPLDFDQSGMPPTVITTASLDPLRDQGMAYFEKLKAAGVRAEHISAEGNIHGHINVRKGIPSSQQDVEGYVTALTAMLAGVMAEA
modifications: metagenomic sequence
As for B1, the “conversion % of 1.e” value in data set [1] (setting [5]) stood at 0%; in data set [1] (setting [6]) it was 0%; in data set [1] (setting [7]), 0%; in data set [1] (setting [9]), 100%; in data set [1] (setting [10]), 0%; in data set [1] (substrate menthylacetate, 1. enantiomer (+)), 0%. The “conversion % of 2.e” value stood at 0% in data set [1] (setting [5]); 0% in data set [1] (setting [6]); 0% in data set [1] (setting [7]); 0% in data set [1] (setting [8]); 35% in data set [1] (setting [10]); 0% in data set [1] (substrate menthylacetate, 2.e. (−)). Further, the ee % in data set [1] (setting [8]) and in data set [1] (substrate isopropylidenglycerolacetate (rac.)) was 100% each time. Moreover, the specific activity turned out to be 0 U/mg in data set [2] (substrate vinyl acetate (C2)); 550 U/mg in data set [2] (substrate vinyl butyrate (C4)); 80 U/mg in data set [2] (substrate vinyl caprylate (C8)); 0 U/mg in data set [2] (substrate vinyl laurinate (C12)); 173 U/mg in data set [2] (substrate vinyl propionate (C3)); 120 U/mg in data set [3] (substrate triacetin (C2)). The specific activity in data set [3] (substrate tributyrin (C4)) turned out to be 330 U/mg; in data set [3] (substrate tricaprylin (C8)), 0 U/mg; in data set [3] (substrate trilaurin (C12)) it was 0 U/mg; in data set [3] (substrate tripropionin (C3)) it was 200 U/mg; in data set [4], 80.0 U/mg.

B2: EstCL2: recombinant enzyme having carboxyl esterase activity, amino acid sequence SEQ ID NO: 8, family V of bacterial lipolytic enzymes (protein)
chain: MKRKTIFSRLSFAALGLFAVATIALDAKAATTCPAGAICRYEEAPGSYSGNGPYTVRSYTLSRLQTPGGATVYYPSNARPPFSGVVFTPPYTGIQSMFAAWGPFFASHGIVMVTMDTNTTLDTVDQRASQQKQVLDALKRENTRSASALYGKLNTARLGAVGWSMGGGATWINSAEYAGLKSAMSLAGHNLTTVDIDSRGGNTRIPTLILNGALDLTYLGGLGQSDGVYNNIRSGVPKVFYEVSSAGHFAWGSPTSANRAVAGIALAFHKTFLDGDTRWVSYIKRPSSDVSKWATASLPQ
modifications: metagenomic sequence
Take B2: in data set [1] (setting [8]), the “conversion % of 2.e” value is recorded as 0%. The “conversion % of 1.e” value in data set [1] (setting [9]) worked out at 100%. The ee % is listed as 76.3% in data set [1] (substrate cis-3,5-diacetoxy-1-cyclopenten, listed as EstCl2) and 76% in data set [1] (substrate cis-3,5-diacetoxy-1-cyclopenten, listed as SEQ ID NO: 8).

For the origin of these results see US8956838B2, “Carboxyl esterase polypeptides” (B.R.A.I.N., priority 2006, dated 2015).
